Each block holds one binder with its values, some of them ahead of it.
Key:
[1] = target: EGFP-ARHGAP4 Rho-GAP deletion mutant (human); test: co-IP
[2] = target: EGFP-ARHGAP4 SH3 deletion mutant (human); test: co-IP

percent of the co-precipitation by full-length ARHGAP4 [1]: 55% | percent of the co-precipitation by full-length ARHGAP4 [2]: 65%
B1: SEPT2 (natural protein)
chain: MSKQQPTQFINPETPGYVGFANLPNQVHRKSVKKGFEFTLMVVGESGLGKSTLINSLFLTDLYPERVIPGAAEKIERTVQIEASTVEIEERGVKLRLTVVDTPGYGDAINCRDCFKTIISYIDEQFERYLHDESGLNRRHIIDNRVHCCFYFISPFGHGLKPLDVAFMKAIHNKVNIVPVIAKADTLTLKERERLKKRILDEIEEHNIKIYHLPDAESDEDEDFKEQTRLLKASIPFSVVGSNQLIEAKGKKVRGRLYPWGVVEVENPEHNDFLKLRTMLITHMQDLQEVTQDLHYENFRSERLKRGGRKVENEDMNKDQILLEKEAELRRMQEMIARMQAQMQMQMQGGDGDGGALGHHV

percent of the co-precipitation by full-length ARHGAP4 [1]: 55% | percent of the co-precipitation by full-length ARHGAP4 [2]: 65%
B2: SEPT9 (natural protein)
chain: MKKSYSGGTRTSSGRLRRLGDSSGPALKRSFEVEEVETPNSTPPRRVQTPLLRATVASSTQKFQDLGVKNSEPSARHVDSLSQRSPKASLRRVELSGPKAAEPVSRRTELSIDISSKQVENAGAIGPSRFGLKRAEVLGHKTPEPAPRRTEITIVKPQESAHRRMEPPASKVPEVPTAPATDAAPKRVEIQMPKPAEAPTAPSPAQTLENSEPAPVSQLQSRLEPKPQPPVAEATPRSQEATEAAPSCVGDMADTPRDAGLKQAPASRNEKAPVDFGYVGIDSILEQMRRKAMKQGFEFNIMVVGQSGLGKSTLINTLFKSKISRKSVQPTSEERIPKTIEIKSITHDIEEKGVRMKLTVIDTPGFGDHINNENCWQPIMKFINDQYEKYLQEEVNINRKKRIPDTRVHCCLYFIPATGHSLRPLDIEFMKRLSKVVNIVPVIAKADTLTLEERVHFKQRITADLLSNGIDVYPQKEFDEDSEDRLVNEKFREMIPFAVVGSDHEYQVNGKRILGRKTKWGTIEVENTTHCEFAYLRDLLIRTHMQNIKDITSSIHFEAYRVKRLNEGSSAMANGMEEKEPEAPEM

— PMC8693978
